The values below come from the supplement of paper PMC9170038.

Data set [1] concerns MS2 coat protein. Nature of the data set: apparent KD of MS2 coat protein, switch ON state; designed switch direction (-1 OFF switch, 1 ON switch): 1; higher = weaker reporter binding. As to conditions: FMN input: 0 or 200 uM; Eterna round: R93 (includes R88 designs). A digest of the protocol:
(§1)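 Designed RNA switches were transcribed on-chip from Illumina sequencing clusters. They were then titrated with SNAP-549-labelled MS2 coat protein (twofold steps, 0.7 or 1.5 nM to 3 µM; 0.8–1.5 h to 10–20 min per step) in 100 mM Tris-HCl pH 7.5, 80 mM KCl, 4 mM MgCl2, without or with constant ligand. Apparent KD is the per-design median of normalised cluster binding-curve fits.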

Data set [2] deals with MS2 coat protein. In words: apparent KD of MS2 coat protein, switch OFF state (with FMN for OFF switches, without FMN for ON switches); designed switch direction (-1 OFF switch, 1 ON switch): 1; higher = weaker reporter binding. The settings on record: FMN input: 0 or 200 uM; Eterna round: R93 (includes R88 designs). A digest of the protocol:
as §1

Regarding “GAUAGACAUGAGGAUCACCCAUGUAGAAUUAUGGGAGGAUAUACAAAGACGAGAGUCAGAGUAGAAGGCCUAGGAA [salish99-ss1-156]”, the “apparent KD of MS2 coat protein” value with MS2 coat protein [1] was determined as 24.5 nM; in the data set on MS2 coat protein [2], 64.6 nM.

As for “GAUGACAUAGUACAGGAUAUAUGAAUAGUCACAUGAGGAUCACCCAUGUGCAUUUAUAUGCGCACAUAGAAGGGUGGUAGUGAUC [Mat - Same state - Malcolm Mod - D126]”, the “apparent KD of MS2 coat protein” value was 79.9 nM in the data set with MS2 coat protein [1] and 49.8 nM in the data set on MS2 coat protein [2].

For the sequence “GCAGGGCCGUACUAGGAUAUGGGUGUAAAGACAUGAGGAUCACCCAUGUGAUGGCAAAACAAAGCUCAGAAGGAGUCGCGGCCCA [Cemavebi]”, the “apparent KD of MS2 coat protein” value in the data set on MS2 coat protein [1] worked out at 20.7 nM; in the data set with MS2 coat protein [2], 129 nM.

In the case of “GCGGUGCAGGUACAGGAUAUGUUGCUCGUAACAUGAGGAUCACCCAUGUACCUAUGAGAUUAAAUGCAGAAGGGUGCACACCACG [Oneratle]”, the “apparent KD of MS2 coat protein” value in the data set with MS2 coat protein [1] amounted to 47.2 nM; with MS2 coat protein [2], 574 nM.

For the sequence “GGAAAACAUGAGGAUCACCCAUGUGAAAACGUGGGAGGAUAUGCAUGGAAACCAUACUGUGCAGAAGGCCCAUGUC [EteRNA is fun!]”, the “apparent KD of MS2 coat protein” value in the data set on MS2 coat protein [1] turned out to be 17.2 nM; in the data set on MS2 coat protein [2], 59.4 nM.

“GGAAAUAAAAGAGAGGAUAUCCAAAGGAAAACAUGAGGAUCACCCAUGUAAAAGGAAGGAAACUGGGAGAAGGCUCAAAAUAAGG [salish99-ss2-010]”: the “apparent KD of MS2 coat protein” value with MS2 coat protein [1] is 18.7 nM; with MS2 coat protein [2], 32.2 nM.

Consider “GGAGCCGGCACUGAGGAUAUUCAUAUUAAAACAUGAGGAUCACCCAUGUAGGCCAGAAGGCCUUGGGAGAAGGCAGGUCGGCUCG [Arinin]”, for which the “apparent KD of MS2 coat protein” value with MS2 coat protein [1] came to 16.5 nM; in the data set with MS2 coat protein [2] it was 363 nM.

With “GGGAAGAAGAGAGAGGAUAUCCAAAGGAAAACAUGAGGAUCACCCAUGUAAAAGGUAGGAAAUUGGGAGAAGGCUCAAAAGAGAG [salish99-ss2-034]”, the “apparent KD of MS2 coat protein” value in the data set on MS2 coat protein [1] came to 20.6 nM; in the data set with MS2 coat protein [2] it was 40.8 nM.

For “GGGAGACAUGAGGAUCACCCAUGUGAGAAGAGGCGAGGAUAUCGAAAGAAAGAAGAGAAACGAGAAGGCGCGAGGC [salish99-SS1-063]”, the “apparent KD of MS2 coat protein” value came out at 37.5 nM in the data set with MS2 coat protein [1] and 53.6 nM with MS2 coat protein [2].

For the sequence “GGGAGGAAGAGAGAGGAUAUCCAAAGGAAAACAUGAGGAUCACCCAUGUAAAAGGUAGGAAAUUGGGAGAAGGCUCAAGAGAAUG [salish99-ss2-055]”, the “apparent KD of MS2 coat protein” value in the data set with MS2 coat protein [1] turned out to be 24.1 nM; with MS2 coat protein [2] it was 28.3 nM.

Take “GGUACAGCUAGUUAGGAUAUCAGGUGUAAGACAUGAGGAUCACCCAUGUCCUAAGAACAGGUAACUGAGAAGGAACAGGGCGUCC [JR_SS002_Sub415]”: the “apparent KD of MS2 coat protein” value with MS2 coat protein [1] came out at 27.3 nM; in the data set with MS2 coat protein [2], 90 nM.

For “GUAGAACAUGAGGAUCACCCAUGUGAAGACGCAUGAGGAUAUAUAAGUAAAUAGCAUAAGAUAGAAGGCAUGAUAA [JR_SS001_Sub1702]”, the “apparent KD of MS2 coat protein” value with MS2 coat protein [1] was found to be 76 nM; with MS2 coat protein [2], 113 nM.

For the sequence “GUAGAACAUGAGGAUCACCCAUGUGAGUACAGUGUAGGAUAUGGGCAUGAGAAGUCAUUUCUAGAAGGGCAAAUAA [Raatbiin]”, the “apparent KD of MS2 coat protein” value in the data set on MS2 coat protein [1] worked out at 207 nM; in the data set on MS2 coat protein [2], 112 nM.

With “GUAGACAUAGUUCAGGAUAUAUGAAUAGUCACAUGAGGAUCACCCAUGUCCAUUUAUAUGGGCACAUAGAAGGGAGGUAGUUAAC [Mat - Same state - Malcolm Mod - D123]”, the “apparent KD of MS2 coat protein” value with MS2 coat protein [1] turned out to be 891 nM; in the data set with MS2 coat protein [2], 1140 nM.

On to “UAAGUACAUGAGGAUCACCCAUGUUGGAAUAGAGCAGGAUAUGUGCAGAGGGAAAUAAAAACAGAAGGGCUAAGAA [Same State #3]”, for which the entries for the “apparent KD of MS2 coat protein” value in the data set on MS2 coat protein [1] and with MS2 coat protein [2] were 25.9 nM and 33 nM, respectively.

For “UAAUAAUAAACCAAGGAUAUGGAGUAUAGAACAUGAGGAUCACCCAUGUGUAGCGUGGAAUAGUACCAGAAGGUGGAGUGAAAUG [JR_SS002_Sub1002]”, the entries for the “apparent KD of MS2 coat protein” value in the data set with MS2 coat protein [1] and in the data set on MS2 coat protein [2] were 39.1 nM and 49.8 nM, respectively.
